# Experiments:
# [1] = target: mTfR-1 N253A on Expi293 cells (mouse) (UniProt Q62351); assay: FACS, transfected Expi293 cells
# [2] = target: mTfR-1 S255A on Expi293 cells (mouse) (UniProt Q62351); assay: FACS, transfected Expi293 cells
# [3] = target: mTfR-1 L256A on Expi293 cells (mouse) (UniProt Q62351); assay: FACS, transfected Expi293 cells; mutant poorly expressed
# Sequence of mTfR-1 L256A on Expi293 cells (mouse) (Q62351 whole entry L256A): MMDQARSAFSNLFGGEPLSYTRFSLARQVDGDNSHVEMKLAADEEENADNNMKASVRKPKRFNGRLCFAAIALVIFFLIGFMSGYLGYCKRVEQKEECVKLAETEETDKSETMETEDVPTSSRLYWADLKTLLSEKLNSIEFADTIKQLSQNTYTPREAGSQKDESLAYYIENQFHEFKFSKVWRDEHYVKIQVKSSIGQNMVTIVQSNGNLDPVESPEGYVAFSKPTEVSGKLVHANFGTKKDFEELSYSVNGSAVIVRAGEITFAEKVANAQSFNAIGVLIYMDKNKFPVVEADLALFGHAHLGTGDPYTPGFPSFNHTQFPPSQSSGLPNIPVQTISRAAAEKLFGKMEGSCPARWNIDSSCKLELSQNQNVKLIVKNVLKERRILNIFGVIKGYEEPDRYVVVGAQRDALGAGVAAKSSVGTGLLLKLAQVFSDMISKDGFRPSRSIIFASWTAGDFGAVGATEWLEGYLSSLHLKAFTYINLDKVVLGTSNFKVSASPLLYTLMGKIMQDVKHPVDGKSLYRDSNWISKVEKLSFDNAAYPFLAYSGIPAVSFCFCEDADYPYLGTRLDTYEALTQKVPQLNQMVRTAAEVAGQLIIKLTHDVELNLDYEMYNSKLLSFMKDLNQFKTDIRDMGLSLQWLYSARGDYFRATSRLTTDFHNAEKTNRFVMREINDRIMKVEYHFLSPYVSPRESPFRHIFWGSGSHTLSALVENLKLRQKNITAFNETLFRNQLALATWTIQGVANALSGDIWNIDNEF
# Sequence of mTfR-1 N253A on Expi293 cells (mouse) (Q62351 whole entry N253A): as the sequence (Q62351 whole entry L256A) above, with N253A, A256L counted along it
# Sequence of mTfR-1 S255A on Expi293 cells (mouse) (Q62351 whole entry S255A): as the sequence (Q62351 whole entry L256A) above, with S255A, A256L counted along it
binder,measurement,setting,value
"Clone C variant 13 VNAR-hFc (Fc fusion, not shown: a dimerising Fc or GST) ARVDQTPQTITKETGESLTINCVLRDSNCALSSTYWYRKKSGSTNEENISKGGRYVETVNSGSKSFSLRINDLTVEDSGTYRCNVVQYPQQDNYFWCDVYGDGTAVTVN",% double-positive cells vs WT,[1],27%
same,% double-positive cells vs WT,[2],19%
"Clone C VNAR-hFc fusion (Fc fusion, not shown: a dimerising Fc or GST) ARVDQTPQTITKETGESLTINCVLRDSNCALSSTYWYRKKSGSTNEENISKGGRYVETVNSGSKSFSLRINDLTVEDSGTYRCNVVQYPSYNNYFWCDVYGDGTAVTVN",% double-positive cells vs WT,[3],1%
